This assay deals with IL-15R β protein. In words: BLI (Octet-RED); IL-15R β immobilized on Ni-NTA biosensors, serial dilutions of the complex as analyte, global 1:1 fit. On the technique in general: BLI is a label-free optical method that tracks binding on a fibre tip over time.

Usually Kd stands for the constant that tells how readily two partners part at equilibrium. Broadly, the koff is a measure of how fast the partners let go of each other. Read a high koff as a short-lived complex. Usually kon stands for the second-order rate constant of association. A low value points to slower complex formation.

Sequence of IL-15R β protein (P14784 27-240): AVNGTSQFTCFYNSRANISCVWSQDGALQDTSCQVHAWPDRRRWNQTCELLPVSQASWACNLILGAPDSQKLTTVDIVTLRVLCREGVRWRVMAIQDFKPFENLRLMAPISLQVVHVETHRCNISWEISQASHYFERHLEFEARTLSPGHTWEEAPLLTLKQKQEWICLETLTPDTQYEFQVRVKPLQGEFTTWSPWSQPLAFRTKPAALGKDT

ALT803 (Fc fusion): the Kd turned out to be 3.9 nM, the off-rate (koff) was 0.000235 s⁻¹ and the association rate constant (kon) was 60400 M⁻¹ s⁻¹.

The values above are taken from patent US20240076353A1.
